Laboratory results as given in patent publication US20140142049A1, “PEGYLATED APELIN AND USES THEREOF” (priority 2011, published 2014).

T1: APJ receptor (Homo sapiens, UniProt P35414)
T1 construct: purchased Perkin Elmer, Waltham, Mass; host or cells: transfected CHO cells (membrane fraction)
T1 sequence (P35414 1-380): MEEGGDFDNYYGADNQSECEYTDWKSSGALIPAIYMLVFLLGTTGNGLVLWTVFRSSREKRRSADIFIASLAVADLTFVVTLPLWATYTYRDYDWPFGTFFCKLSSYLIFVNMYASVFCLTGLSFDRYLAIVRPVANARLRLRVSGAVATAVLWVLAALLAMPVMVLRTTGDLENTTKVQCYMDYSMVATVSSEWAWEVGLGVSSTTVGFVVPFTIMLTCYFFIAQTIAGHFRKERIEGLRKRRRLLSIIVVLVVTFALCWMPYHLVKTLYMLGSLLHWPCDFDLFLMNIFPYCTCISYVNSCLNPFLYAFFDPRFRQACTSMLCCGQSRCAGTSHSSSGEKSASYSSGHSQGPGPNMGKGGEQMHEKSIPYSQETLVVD

T2: APJ receptor in a membrane fraction from transfected CHO cells (Perkin Elmer) (UniProt P35414 1-380, limits assumed)
T2 construct: whole, on cells; The receptor stood in a membrane fraction of transfected CHO cells, not on whole cells
T2 sequence (looked up): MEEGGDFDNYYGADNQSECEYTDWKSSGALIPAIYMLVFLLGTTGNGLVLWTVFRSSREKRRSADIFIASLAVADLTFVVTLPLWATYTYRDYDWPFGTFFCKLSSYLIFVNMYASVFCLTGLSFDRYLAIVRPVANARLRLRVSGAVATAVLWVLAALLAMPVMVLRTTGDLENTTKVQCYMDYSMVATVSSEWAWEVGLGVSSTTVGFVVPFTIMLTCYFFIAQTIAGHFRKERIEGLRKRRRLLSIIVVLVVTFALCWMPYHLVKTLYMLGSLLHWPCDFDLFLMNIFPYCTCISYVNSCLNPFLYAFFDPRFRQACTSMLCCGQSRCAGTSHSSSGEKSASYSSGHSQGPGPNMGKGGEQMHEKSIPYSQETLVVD


Columns and labels:
APJ receptor = target: T1, APJ receptor; experiment: APJ receptor binding assay (competitive radioligand binding); details: negative control
Method: The binding was performed using competition with ^125I-labelled [Glp^65, Nle^75, Tyr^77]-apelin13 probe for binding to the APJ receptor in a membrane fraction from the transfected CHO cells (Perkin Elmer, Waltham, Mass.). Serially diluted peptide was incubated with membrane and probe for 1 hour at room temperature. The mixture was then filtered over a 1.2 um glass fiber type C filterplate (Millipore Corp., Billerica, Mass.), preblocked with 0.5% polyethylenimine. The plate was washed 4 times with 200 ul ice cold binding buffer and then another 4 times with ice cold 50 mM Tris-HCl, pH7.4, dried and counted with scintillation fluid. The data was analyzed with Graphpad Prism 4 (GraphPad Software, Inc, La Jolla, Calif.) using nonlinear regression.

[1] = target: T2, APJ receptor in a membrane fraction …; experiment: competitive radioligand binding, 125I-[Glp65, Nle75, Tyr77]-apelin13 probe, APJ membranes from transfected CHO cells
Method: The mixture was then filtered over a 1.2 um glass fiber type C filterplate (Millipore Corp., Billerica, Mass.), preblocked with 0.5% polyethylenimine. The plate was washed 4 times with 200 ul ice cold binding buffer and then another 4 times with ice cold 50 mM Tris-HCl, pH7.4, dried and counted with scintillation fluid. The data was analyzed with Graphpad Prism 4 (GraphPad Software, Inc, La Jolla, Calif.) using nonlinear regression.

binding to APJ receptor (in words) (APJ receptor)	binding result [1]	Molecule
no binding	–	α-MSH: 13 amino acid α-MSH peptide negative control
–	no binding	SYSMEHFRWGKPV (peptide, UniProt P01189 138-150, looked up, also called negative control) [13 amino acid α-MSH peptide]
